Assay results reported in patent US9556249B2, “Neuregulin antagonists and use thereof in treating cancer” (Genentech, Inc., priority 2010, dated 2017).

Key:
[1] = system: KPL4; test: KPL4-GFP orthotopic breast cancer model, response to chemotherapy; assay type: in vivo, SCID/beiz mice; settings: following completion of chemotherapy regimen; tumors subsequently recurred
Procedure: Several cancer models that show significant regression in response to chemotherapy followed by tumor relapse after the cessation of therapy (FIG. 1) were generated and used to study the cells that are responsible for tumor re-initiation. These cells are tumor reinitiating cells (TRICs). In order to generate the models, GFP labeled human tumor cells were transplanted subcutaneously, and when tumor size reached ˜200 mm^3, mice were treated with either vehicle or chemotherapy as shown in the respective models. GFP+ tumor cells were isolated from regressed or vehicle treated tumors by FACS-sorting after enzymatic digestion and dissociation. Tumors were collected a minimum of one week after the last dose of chemotherapy and before the resumption of tumor growth.
GFP-expressing sublines of the human breast cancer cell line KPL4 were transplanted orthotropically to the mammary fat pad of SCID/beiz mice. For the KPL4 model, chemotherapy consisted of Paclitaxel (20 mg/kg, i.v. every other day for 5 doses). FIG. 2C (data presented as mean tumor volume±SEM, n=12 mice/group).

[2] = system: LSL-K-ras^G12D lung tumors; settings: LSL-K-ras^G12D mice (Oliver et al., 2010); cited from earlier work
[3] = system: LSL-K-ras^G12D lung tumors; test: LSL-K-ras G12D x Z/EG mouse NSCLC model, FACS of GFP-positive tumor cells; assay type: in vivo; settings: one week after final dose of cisplatin, vs vehicle controls
Procedure: In addition, the LSL-K-ras^G12D genetically engineered mouse model of NSCLC (Jackson et al., 2001) was crossed to the Z/EG Cre-reporter strain (Novak et al., 2000) and used in this study. Cisplatin (7 mg/kg i.p. every 7 days for 3 doses) was started 12 weeks after AdenoCre infection of the lungs (ie. tumor initiation). Lungs were collected 1 week after the last dose of chemotherapy and tumor cells were isolated by FACS after enzymatic digestion and dissociation. […] FIG. 2D (data presented as the average number of GFP positive cells per lung±SEM, n=6/group).

[4] = system: LSL-K-ras^G12D; p53^Fl/+ lung tumors; test: LSL-K-ras G12D; p53 Fl/+ lung tumor model, micro-CT tumor burden; assay type: in vivo, mice
[5] = system: NRG1/HER3 signaling; test: HER4-ECD added to serum starved LKPH1 and LKPH2 cells, Western blotting; assay type: cell-based, mouse; settings: HER4ECD 2 mg/ml, 48 hours
[6] = system: LSL-K-ras^G12D; p53^Fl/Fl lung tumors; test: LSL-K-ras G12D; p53 Fl/Fl lung tumor model, micro-CT tumor burden; assay type: in vivo, mice
[7] = system: NRG1 mRNA; test: NRG1 mRNA levels in H1299 subline expressing shNRG1.2; assay type: cell-based, human; settings: compared with shNRG1
[8] = system: H1299-shNRG1.2; test: H1299-shNRG1.2 in vivo study; settings: magnitude of growth inhibition smaller than with shNRG1
[9] = system: HER4; test: HER4 knockdown in Calu3-shHER4 cells, qPCR; assay type: cell-based, human; settings: dox 2 ug/ml
[10] = system: Calu3-shHer4 xenograft tumors; test: Calu3-shHER4 xenograft tumor growth; assay type: in vivo, mice; settings: dox vs sucrose
[11] = system: H441 cells; test: Exogenous NRG1 stimulation of serum starved H441 cells, Western blotting; assay type: cell-based, human; settings: 1 uM NRG1, ten minutes
[12] = system: HER3; test: HER3 knockdown in Calu3-shHER3 cells, qPCR and Western blot; assay type: cell-based, human
[13] = system: Calu3-shHER3 xenograft tumors; test: Calu3-shHER3 xenograft tumor growth; assay type: in vivo, mice; settings: dox treatment; vs sucrose TDT=11 days

CC(=O)O[C@H]1C(=O)[C@@]2(C)[C@H]([C@H](OC(=O)c3ccccc3)[C@]3(O)C[C@H](OC(=O)[C@H](O)[C@@H](NC(=O)c4ccccc4)c4ccccc4)C(C)=C1C3(C)C)[C@]1(OC(C)=O)CO[C@@H]1C[C@@H]2O [Paclitaxel]
tumor size vs vehicle-treated mice [1]: significantly smaller

N.N.[Cl][Pt][Cl] [cisplatin]
survival [2]: does not result in prolonged survival
number of GFP-positive tumor cells per lung [3]: significant decrease in tumor cell number
average tumor burden at conclusion of study and overall tumor growth rate vs vehicle ([4]; cisplatin+control IgG2A): not significantly different

HER4-ECD: fusion of the human HER4 extracellular domain to murine IgG2A Fc; ligand trap to sequester NRG1
p-HER3 levels [5]: diminished
tumor growth (average tumor burden and tumor growth rate) ([4]; cisplatin+HER4-ECD combination): significant inhibition of tumor growth
effect on tumor growth ([6]; HER4-ECD treatment alone): no effect
tumor burden by micro-CT ([6]; day 28, cisplatin+HER4-ECD vs cisplatin+vehicle and all other groups): significant reduction in tumor burden

B1: shNRG1.2: a different doxycycline-inducible shRNA to NRG1 (SEQ ID NO: 3 and 4) (nucleic acid)
chain 1: GATCCCCGAGTATATGTGCAAAGTGATTCAAGAGATCACTTTGCACATATACTCTTTTTTGGAAA
chain 2: AGCTTTTCCAAAAAAGAGTATATGTGCAAAGTGATCTCTTGAATCACTTTGCACATATACTCGGG
reduction in NRG1 mRNA levels [7]: more modest reduction
response to chemotherapy upon NRG1 knockdown [8]: enhanced response to chemotherapy

B2: shHER4: dox-inducible shRNA to HER4 (SEQ ID NO: 5 and 6) (nucleic acid)
chain 1: GATCCCCGATCACAACTGCTGCTTAATTCAAGAGATTAAGCAGCAGTTGTGATCTTTTTTGGAAA
chain 2: AGCTTTTCCAAAAAAGATCACAACTGCTGCTTAATCTCTTGAATTAAGCAGCAGTTGTGATCGGG
HER4 transcript levels [9]: decreased
inhibition of tumor growth [10]: not a notable inhibition of tumor growth

B3: NRG1: recombinant human NRG1 beta-1 extracellular domain (R&D systems), exogenous ligand (protein, UniProt Q02297 20-242, looked up)
extracellular domain: SGKKPESAAGSQSPALPPRLKEMKSQESAAGSKLVLRCETSSEYSSLRFKWFKNGNELNRKNKPQNIKIQKKPGKSELRINKASLADSGEYMCKVISKLGNDSASANITIVESNEIITGMPASTEGAYVSSESPIRISVSTEGANTSSSTSTSTTGTSHLVKCAEKEKTFCVNGGECFMVKDLSNPSRYLCKCQPGFTGARCTENVPMKVQNQEKAEELYQKR
modifications: extracellular domain
notes: recombinant human NRG1 beta-1 extracellular domain (R&D systems), exogenous ligand
levels of p-Stat3 or p-Mek1/2 [11]: no detectable changes
p-HER3 and p-AKT [11]: increase

B4: shHER3: dox-inducible shRNA to HER3 (SEQ ID NO: 7 and 8) (nucleic acid)
chain 1: GATCCCCAAGAGGATGTCAACGGTTATTCAAGAGATAACCGTTGACATCCTCTTTTTTTTGGAAA
chain 2: AGCTTTTCCAAAAAAAAGAGGATGTCAACGGTTATCTCTTGAATAACCGTTGACATCCTCTTGGG
HER3 transcript levels ([12]; dox 2 ug/ml, qPCR): decreased
extent of p-AKT down-regulation ([12]; in the presence of dox, compared with Calu3-shHER4): much greater
time to doubling (TDT) [13]: 19 days
